From patent US20250108090A1 (published 2025)

Biological target: T1, mouse apoptosis inhibitor of macrophage (AIM), wild-type recombinant (mouse, UniProt Q9QWK4 22-352)
T1 construct: mature; also called rAIM; mouse AIM
T1 sequence (looked up): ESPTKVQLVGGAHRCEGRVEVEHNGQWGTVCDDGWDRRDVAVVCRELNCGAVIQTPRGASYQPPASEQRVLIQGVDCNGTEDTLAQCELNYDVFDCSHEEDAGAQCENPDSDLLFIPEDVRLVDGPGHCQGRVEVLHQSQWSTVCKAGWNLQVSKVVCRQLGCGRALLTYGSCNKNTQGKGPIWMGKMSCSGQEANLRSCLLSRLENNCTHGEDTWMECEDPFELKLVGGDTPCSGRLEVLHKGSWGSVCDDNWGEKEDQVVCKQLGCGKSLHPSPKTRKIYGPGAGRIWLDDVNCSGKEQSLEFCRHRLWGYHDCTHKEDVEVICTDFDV
Test: immunofluorescence co-localisation on peritoneal macrophages, confocal microscope (FIG. 3H)
Procedure: Peritoneal macrophages isolated from AIM^{-/-} mice were plated on a Lab-Tek II chamber slide (NalgeNunk) and cultured for 2 h to let them attach to the slide. The cells were incubated with 10 μg/mL of DAMPs (mouse PRDX1-His, human PRDX1-His, human HMGB1, or mouse S100A9) with or without wild-type mouse or human rAIM (100 μg/mL) at 37° C. for 10 min. For mouse PRDX1, the mutants of 2CS or ΔSRCR3 were also used. Each ligand and AIM were immunostained with antibodies to His (for mouse and human PRDX1), HMGB1 or S100A9, followed by fluorescent-conjugated secondary antibodies. Nuclei were stained with 4′,6-diamidino-2-phenylindole (DAPI). The cells were analyzed under a florescence confocal microscope.

B1: mouse PRDX1-His (RPF757Mu01, USCN) (ligand, UniProt P35700 1-199, looked up)
chain: MSSGNAKIGYPAPNFKATAVMPDGQFKDISLSEYKGKYVVFFFYPLDFTFVCPTEIIAFSDRADEFKKLNCQVIGASVDSHFCHLAWINTPKKQGGLGPMNIPLISDPKRTIAQDYGVLKADEGISFRGLFIIDDKGILRQITINDLPVGRSVDEIIRLVQAFQFTDKHGEVCPAGWKPGSDTIKPDVNKSKEYFSKQK
notes: also called RPDX; not shown: His tag
B1: binds.
